{"source": "a protein production outcome set (Wang et al. 2014)", "data": [{"experiment": "label from the status in PepcDB records", "values": [{"sequence": "SQFVLQDLQDATLGSLLSSLMQHCDPPQRKYPLEKGTPPPWWPTGNEEWWVKLGLPKSQSPPYRKPHDLKKMWKVGVLTAVINHMLPDIAKIKRHVRQSKCLQDKMTAKESAIWLAVLNQEESLIQQ", "protein production": "not failed"}, {"sequence": "SQSLKPEPFGRRAQAVETNKTLHEMKTRFLLFGETNQGCQIRINHPDTLQECGFNSSLPLVMIIHGWSVDGVLENWIWQMVAALKSQPAQPVNVGLVDWITLAHDHYTIAVRNTRLVGKEVAALLRWLEESVQLSRSHVHLIGYSLGAHVSGFAGSSIGGTHKIGRITGLDAAGPLFEGSAPSNRLSPDDANFVDAIHTFTREHMGLSVGIKQPIGHYDFYPNGGSFQPGCHFLELYRHIAQHGFNAITQTIKCSHERSVHLFIDSLLHAGTQSMAYPCGDMNSFSQGLCLSCKKGRCNTLGYHVRQEPRSKSKRLFLVTRAQSPFKVYHYQLKIQFINQTETPIQTTFTMSLLGTKEKMQKIPITLGKGIASNKTYSFLITLDVDIGELIMIKFKWENSAVWANVWDTVQTIIPWSTGPRHSGLVLKTIRVKAGETQQRMTFCSENTDDLLLRPTQEKIFVKCEIKSKTSKRKIR", "protein production": "failed"}, {"sequence": "SQVDDWIVGLEVEIFTFDGKEYRGIVYTYDADANCVVLARKSQDSLKSDLRILKASLVKNINVLGRSNVDQLPQQLSPLNLEALKMREEQALQKARKDLARTGVGVSQQAQEIFDALCKTLPCQWEEDSIVIFENIKLKKPYRVEDLDEIEAVNRVKVVLENELQKLQRRNT", "protein production": "not failed"}, {"sequence": "SSAQFDHVTVIKKSNVYFGGLCISHTVQFEDGTKKTLGVILPTEQPLTFETHVPERMEIISGECRVKIADSTESELFRAGQSFYVPGNSLFKIETDEVLDYVCHLE", "protein production": "failed"}, {"sequence": "SSFQGPLDATVVVNLQSPTLEEKNEFPEDLRTELMQTLGSYGTIVLVRINQGQMLVTFADSHSALSVLDVDGMKVKGRAVKI", "protein production": "not failed"}, {"sequence": "SSHQPLSCLTEKEDSPSESTGNGPPHLAHPNLDTFTPEELLQQMKELLTENHQLKEAMKLNNQAMKGRFEELSAWTEKQKEERQFFEIQSKEAKERLMALSHENEKLKEELGKLKGKSERSSEDPTDDSRLPRAEAEQEKDQLRTQVVRLQAEKADLLGIVSELQLKLNSSGSSEDSFVEIRMAEGEAEGSVKEIKHSPGPTRTVSTGTSRSADGAKNYFEHEELTVSQLLLCLREGNQKVERLEVALKEAKERVSDFEKKTSNRSEIETQTEGSTEKENDEEKGPETVGSEVEALNLQVTSLFKELQEAHTKLSEAELMKKRLQEKCQALERKNSAIPSELNEKQELVYTNKKLELQVESMLSEIKMEQAKTEDEKSKLTVLQMTHNKLLQEHNNALKTIEELTRKESEKVDRAVLKELSEKLELAEKALASKQLQMDEMKQTIAKQEEDLETMTILRAQMEVYCSDFHAERAAREKIHEEKEQLALQLAVLLKENDAFEDGGRQSLMEMQSRHGARTSDSDQQAYLVQRGAEDRDWRQQRNIPIHSCPKCGEVLPDIDTLQIHVMDCII", "protein production": "failed"}, {"sequence": "SSNYPRCWNCGGPWGPGREDRFFCPQCRALQAPDPTRDYFSLMDCNRSFRVDTAKLQHRYQQLQRLVHPDFFSQRSQTEKDFSEKHSTLVNDAYKTLLAPLSRGLYLLKLHGIEIPERTDYEMDRQFLIEIMEINEKLAEAESEAAMKEIESIVKAKQKEFTDNVSSAFEQDDFEEAKEILTKMRYFSNIEEKIKLKKIPL", "protein production": "failed"}, {"sequence": "SSSDVVTLTVGATPSPHAKILTYINDNLAADAGIKLDIVEYTDYVQPNTALNDGDLDANFYQTVPYLENAEKQFGYNFEAGEGIHLEPLGVFSNKHKSLDELPDGGTIGIISDTANQSRALELLATQGLVSIPEGDGDVNINTVTKLKNFDFREVEGPQLVRSLDDFDYAVINGNFAQEGGKTISGDALVVESPVDNPAVNVLVWKGDSKKVDAIAKLEKLLHSDEVKQYIEKTWSDGSVIPAF", "protein production": "not failed"}, {"sequence": "SSSSSSVPAYLGDEDLTQETRALISSLPKEKGWLVSEIYEFQGLWHTQAILQGILICQKRFEAKDSDIILVTNPKSGTTWLKALVFALLNRHKFPVSSSGNHPLLVTNPHLLVPFLEGVYYESPDFDFSSLPSPRLMNTHISHLSLPESVKSSSCKIVYCCRNPKDMFVSLWHFGKKLAPEETADYPIEKAVEAFCEGKFIGGPFWDHILEYWYASRENPNKVLFVTYEELKKQTEVEMKRIAEFLECGFIEEEEVREIVKLCSFESLSNLEVNKEGKLPNGIETKTFFRKGEIGGWRDTLSESLAEEIDRTIEEKFKGSGLKFSS", "protein production": "not failed"}, {"sequence": "SSTQGWADGLLTDIAHVRAHISDEFLFSSASTLNEIALAADIEERTQSVDVFLGNSLFVRLVDMFGRLNTEVFTNRGASGIDGLFATASGVQRSRGKPLLMYIGDTSALYDLNSLALFSRNDLPSVLVVTNNDGGAIFDMLPVPQEHRTAYYQMPHGYQFEHAAKQFGLKYEKPTTLQMYQAMVADHLSSGQGTMLVEVQTPPSQAAELIKAFNKSLHASL", "protein production": "failed"}, {"sequence": "STAFFFRRMSPADKRKLLDELRSIYRTIVLEYFNTDAKVNERIDEFVSKAFFADISVSQVLEIHVELMDTFSKQLKLEGRSEDILLDYRLTLIDVIAHLCEMYRRSIPREV", "protein production": "not failed"}, {"sequence": "STFYVEFNRKDSDKTLAKAFQNKKIRQALSLAINRKSYVNNTLGNGSTVSKGYVSEDLAKNPTTGKDFTTDAAVPSAVDYNLTKAKKLWKEGLKEIGETKLNIKLLSDDTDAGKKATEFIQGGWEKLPGLTVTNQNVPFKTRLQRSQNGNFDTVISAWNADFTDPISFLSLFTSDNSYNNGKYDSAAYDDAVKKAEGADANNKTARWADMVAAEKQLMNDQGVIPIYQQASATLTRSNLKGIIYNTAGSNYNFKYMSVK", "protein production": "failed"}, {"sequence": "STVVEIKSQDQFTQLTTTNAANKLIVLYFKAQWADPCKTMSQVLEAVSEKVRQEDVRFLSIDADEHPEISDLFEIAAVPYFVFIQNGTIVKEISAADPKEFVKSLEILSNASASLANNAKGPKSTSDEESSGSSDDEEDETEEEINARLVKLVQAAPVMLFMKGSPSEPKCGFSRQLVGILREHQIRFGFFDILRDENVRQSLKKFSDWPTFPQLYINGEFQGGLDIIKESIEEDPEYFQHALQ", "protein production": "not failed"}, {"sequence": "SVICCAAVNCSNRQGKGEKRAVSFHRFPLKDSKRLIQWLKAVQRDNWTPTKYSFLCSEHFTKDSFSKRLEDQHRLLKPTAVPSIFHLTEKKRGAGGHGRTRRKDASKATGGVRGHSSAATGRGAAGWSPSSSGNPMAKPESRRLKQAALQGEATPRAAQEAASQEQAQQALERTPGDGLATMVAGSQGKAEASATDAGDESATSSIEGGVTDKSGISMDDFTPPGSGACKFIGSLHSYSFSSKHTRERPSVPREPIDRKRLKKDVEPSCSGSSLGPDKGLAQSPPSSSLTATPQKPSQSPSAPPADVTPKPATEAVQSEHSDASPMSINEVILSASGACKLIDSLHSYCFSSRQNKSQVCCLREQVEKKNGELKSLRQRVSRSDSQVRKLQEKLDELRRVSVPYPSSLLSPSREPPKMNPVVEPLSWMLGTWLSDPPGAGTYPTLQPFQYLEEVHISHVGQPMLNFSFNSFHPDTRKPMHRECGFIRLKPDTNKVAFVSAQNTGVVEVEEGEVNGQELCIASHSIARISFAKEPHVEQITRKFRLNSEGKLEQTVSMATTTQPMTQHLHVTYKKVTP", "protein production": "not failed"}, {"sequence": "SVSLVGPAPWGFRLQGGKDFNMPLTISSLKDGGKASQAHVRIGDVVLSIDGISAQGMTHLEAQNKIKACTGSLNMTLQRASAAAKSEPVS", "protein production": "not failed"}, {"sequence": "SVTFSYLAETDYPVFTLGGSTADAARRLAASGCACAPVLDGERYLGMVHLSRLLEGRKGWPTVKEKLGEELLETVRSYRPGEQLFDNLISVAAAKCSVVPLADEDGRYEGVVSRKRILGFLAERI", "protein production": "not failed"}, {"sequence": "SYASETASTQGLPALELDPEELLAQVQLLRAAVEGSRRESRELVGALERERRLNLEMRQRFERQFAAVSDQLLQLNHLQKESEALLQSLQEQLNEAELQKNAAQRELACVQRQLSLARAEADAGKRVLTTIAEKEALLRKTSQANADLQQIVMHLQAELRNSELQPSTSNASEERLHEAEIPSLADRDAYQTLQQTIEKLSAERDMWYHECARAKEESLRLQQDAERLRGLLDEQQRVHTTTQTLLQDRHLLMRRIIAALAEKYLMEKLPNQHYTQEIDSSPFQARGGTSVQEAHKHERLRRARSF", "protein production": "not failed"}, {"sequence": "SYMYDRDGSLVSEIVSDHENRVLVPFNKIPEEVKQIFLTSEDRHFYEHKGFDFMGMVPPTASNVKDKKIDQGASTITQQLSRNLYLSHERSFSRKLTELAYSYQLEKKYTKNEILEAYLNTIYFNNGVYGVGSAAQFYFSKPLKSLTVGEMAFICAIPNNPTLYDPLKHF", "protein production": "failed"}, {"sequence": "TAALSGAANLGAPLSNDFCTISLSDKWRGWDEIEEKLRAAAISGFVVVLYNCWRDYERAVDVLREERADDVPAAIVNDSGRGEAGRNLDDETETITTLGELPEHDDKVGGMGSSIVVGTHETEV", "protein production": "failed"}, {"sequence": "TAQLTIEAVPSNAAEGKEVLLLVHNLPQDPRGYNWYKGETVDANRRIIGYVISNQQITPGPAYSNRETIYPNASLLMRNVTRNDTGSYTLQVIKLNLMSEEVTGQFSVHPETPKPSI", "protein production": "not failed"}, {"sequence": "TATLILDDGLAIRYANPAAELLFSQSAKRIVEQSLSQLIQHASLDLALLTQPLQSGQSITDSDVTFVVDGRPLMLEVTVSPITWQRQLMLLVEMRK", "protein production": "not failed"}, {"sequence": "TDVSSWIVYPSGKVYVAAVRLERVVLTCELCRPWAEVRWTKDGEEVVESPALLLQKEDTVRRLVLPAVQLEDSGEYLCEIDDESASFTVTVTEPPVRIIY", "protein production": "not failed"}, {"sequence": "TEASSLVGKLETDVEIKASADKFHHMFAGKPHHVSKASPGNIQGCDLHEGDWGTVGSIVFWNYVHDGEAKVAKERIEAVEPDKNLITFRVIEGDLMKEYKSFLLTIQVTPKPGGPGSIVHWHLEYEKISEEVAHPETLLQFCVEVSKEIDEHLLAEE", "protein production": "not failed"}, {"sequence": "TEETAKVVPMAVITPAINQLTDQEKAEGWALLFDGKTTKGWRGAHKDAFPDHGWMVKDGELIVQKSDGSESTNGGDIVTEGEYSAFEFSVDFKITEGANSGIKYFVTEQEKQKGSAYGLEFQLLDDAKHPDAKLYTTFPGSRTLGSLYDLKKSENIHFNGVGEWNTAVVKVFPNNHVEHWLNGVKVLEYERGSKEFRDLVKGSKYADPSYNAGGAFGEAPKGHILLQDHGDEVAFRNIKVKELK", "protein production": "not failed"}, {"sequence": "TFYSVRMRASMNGSHEDGGKHISGGERLIPFHEMKHTVNALLEKGLSHSRGKPDFMQIQFEEVHESIKTIQPLPVHTNEVSCPEEGQKLARLLLEKEGVSRDVIEKAYEQIPEWSDVRGAVLFDIHTGKRMDQTKEKGVRVSRMDWPDANFEKWALHSHVPAHSRIKEALALASKVSRHPAVVAELCWSDDPDYITGYVAGKKMGYQRITAMKEYGTEEGCRVFFIDGSNDVNTYIHDLEKQPILIE", "protein production": "not failed"}, {"sequence": "TGEPGASDLESRNNRLQLALQLNQRTQQEQLEHLERVRGQQDLILRLARHRYSAGNSLLEAAQLITQSACEIYKVDCASIWHLEDQRLEPIIAWYRDAQEHRQPEAIDASRFPDYLDALHASRAIDAHNAGHDPRTRALAQSMRPENKAMLDASIRVDGQVIGVLCLEQSGQPRAWQSDEIAFAGELADQFAQVITNHKRRAAASALHLFQRAVEQSA", "protein production": "failed"}, {"sequence": "TGQDAYGQVTEMQYVVYAFSKVETIFSDMYAFAALKTDGSVVTWGYSDYGGDSSSVAGQLTSGVKVIDSTSSAFAAIKEDGSVVTWGDSPYGGDSSSVAGKLTSGVKVIYSNSSAFAAVKQDGSVVTWGSYGGDSSSVAGQLTSGVKVIYSTDSEFGAFAAVKEDGSVVTWGNSPYGGDSSSVAGQLTSGVKVIYSTNNAFAAVKEDGSVVTWGDSGAGGDSSSVAGQLT", "protein production": "failed"}, {"sequence": "TIFKDIYQLWFTQYKQTVKESTWVTTQRLFRLHILPIFSDYRIAKISIKDCQKAINQWFNAGLAKYHTLMNYVAKVLDYAINIDLISENPAKRVIVPVNKNDRS", "protein production": "failed"}, {"sequence": "TISQRPYRDRVIHLLALKAYKKPELLARLQKDGVNQKDKNSLGAILQQVANLNSKDLSYTLKDYVFKELQRDWPGYSEIDRRSLESVLSRKLN", "protein production": "not failed"}]}]}
